Measurements reported in PMC8810934.

Target: F-actin in live HEK293T cells (human (endogenous in HEK293T)) (UniProt P60709)
Assay: FRET or BRET; live HEK293T cells co-transfected with ABD-mEGFP (donor) and Lifeact-mCherry (acceptor, on actin filaments); harvested 24 h after transfection; FRET efficiency from mEGFP fluorescence lifetime (time-correlated single photon counting); n = 3

L253P β-III-spectrin ABD fused at the C-terminus to mEGFP (domain or fragment)
FRET efficiency: 8.4%
